Target: protein interacting with C kinase 1 (PICK1), recombinant full-length (UniProt Q9EP80)
Assay: fluorescence polarisation

Sequence of UniProt Q9EP80 (Q9EP80 whole entry): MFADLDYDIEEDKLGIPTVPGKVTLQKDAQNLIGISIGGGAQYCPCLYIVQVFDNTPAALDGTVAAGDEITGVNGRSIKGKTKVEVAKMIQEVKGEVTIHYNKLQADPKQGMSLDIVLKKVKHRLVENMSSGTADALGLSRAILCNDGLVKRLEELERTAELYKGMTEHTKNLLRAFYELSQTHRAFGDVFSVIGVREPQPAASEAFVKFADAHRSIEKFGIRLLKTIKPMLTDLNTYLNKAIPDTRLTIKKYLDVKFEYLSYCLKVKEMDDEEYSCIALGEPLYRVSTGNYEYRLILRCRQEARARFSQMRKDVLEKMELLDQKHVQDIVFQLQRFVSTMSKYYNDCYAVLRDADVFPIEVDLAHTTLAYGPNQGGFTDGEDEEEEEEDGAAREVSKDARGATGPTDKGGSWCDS

- Ki: 24 µM
Substance: unlabeled GluA2 peptide
